Source: patent US20160272721A1 (NEOMICS, published 2016)

T1: FUSE-binding protein (UniProt Q96AE4 1-644, limits assumed)
T1 construct: Yeast two hybrid fusion; construct not described; also called FBP
T1 sequence (looked up): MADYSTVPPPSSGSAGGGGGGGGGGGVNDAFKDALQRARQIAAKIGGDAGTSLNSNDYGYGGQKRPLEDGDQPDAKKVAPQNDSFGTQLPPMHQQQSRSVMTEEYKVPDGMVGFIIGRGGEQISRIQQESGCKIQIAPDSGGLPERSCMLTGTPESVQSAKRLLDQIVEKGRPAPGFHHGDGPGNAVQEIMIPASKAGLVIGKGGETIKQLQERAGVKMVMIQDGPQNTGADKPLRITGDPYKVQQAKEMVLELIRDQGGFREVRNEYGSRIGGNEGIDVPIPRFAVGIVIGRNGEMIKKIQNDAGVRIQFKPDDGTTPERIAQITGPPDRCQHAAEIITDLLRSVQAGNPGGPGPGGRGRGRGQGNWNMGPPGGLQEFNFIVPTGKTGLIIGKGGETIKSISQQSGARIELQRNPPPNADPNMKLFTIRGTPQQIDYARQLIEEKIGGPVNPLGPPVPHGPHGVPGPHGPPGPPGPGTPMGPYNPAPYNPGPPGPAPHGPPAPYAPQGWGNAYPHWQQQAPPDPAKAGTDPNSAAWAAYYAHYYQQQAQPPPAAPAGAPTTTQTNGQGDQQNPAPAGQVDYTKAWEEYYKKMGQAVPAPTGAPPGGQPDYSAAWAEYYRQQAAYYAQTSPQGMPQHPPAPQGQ

T2: AIMP2-DX2 with thirty three (33) N-terminal amino acids deleted, fused with strep tag (human, UniProt Q13155 34-320)
T2 construct: Expressed in HEK293T cells, tested in cell lysate; also called Δ33-DX2; Δ33; not shown: strep tag of thirty amino acids including a linker peptide
T2 sequence: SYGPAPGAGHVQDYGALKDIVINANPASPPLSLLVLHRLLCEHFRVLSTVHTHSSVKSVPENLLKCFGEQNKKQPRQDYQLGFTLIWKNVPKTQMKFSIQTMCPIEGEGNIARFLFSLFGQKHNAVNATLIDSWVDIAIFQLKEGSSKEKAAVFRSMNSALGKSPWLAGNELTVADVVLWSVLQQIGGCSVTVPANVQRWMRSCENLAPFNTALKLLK

T3: AIMP2-DX2 with two (2) N-terminal amino acids deleted, fused with strep tag (human, UniProt Q13155 3-320)
T3 construct: Expressed in HEK293T cells, tested in cell lysate; also called Δ2-DX2; Δ2; not shown: strep tag of thirty amino acids including a linker peptide
T3 sequence: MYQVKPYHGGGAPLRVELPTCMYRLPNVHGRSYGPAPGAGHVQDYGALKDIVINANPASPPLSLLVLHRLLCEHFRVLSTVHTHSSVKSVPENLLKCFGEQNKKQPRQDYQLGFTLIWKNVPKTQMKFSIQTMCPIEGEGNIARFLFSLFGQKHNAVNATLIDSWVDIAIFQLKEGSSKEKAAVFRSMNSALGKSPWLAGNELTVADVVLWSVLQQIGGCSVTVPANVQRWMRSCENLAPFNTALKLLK

T4: AIMP2-DX2 with twenty three (23) N-terminal amino acids deleted, fused with strep tag (human, UniProt Q13155 24-320)
T4 construct: Expressed in HEK293T cells, tested in cell lysate; also called Δ23-DX2; Δ23; not shown: strep tag of thirty amino acids including a linker peptide
T4 sequence: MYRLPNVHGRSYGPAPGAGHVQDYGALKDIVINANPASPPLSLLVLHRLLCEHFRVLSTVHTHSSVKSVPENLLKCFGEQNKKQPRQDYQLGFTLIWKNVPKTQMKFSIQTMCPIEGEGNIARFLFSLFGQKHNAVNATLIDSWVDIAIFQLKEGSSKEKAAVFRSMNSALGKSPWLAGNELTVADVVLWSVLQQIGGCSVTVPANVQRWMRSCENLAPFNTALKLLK

T5: AIMP2 protein (wild type, full-length) (human, UniProt Q13155 1-312, limits assumed)
T5 construct: 217 is written here; B42 fusion (pJG4-5) in yeast two hybrid; 35S-labelled in vitro translation product in the pull-down; endogenous in A549, DU145 and H460 cells; also called AIMP2-F; p38
T5 sequence: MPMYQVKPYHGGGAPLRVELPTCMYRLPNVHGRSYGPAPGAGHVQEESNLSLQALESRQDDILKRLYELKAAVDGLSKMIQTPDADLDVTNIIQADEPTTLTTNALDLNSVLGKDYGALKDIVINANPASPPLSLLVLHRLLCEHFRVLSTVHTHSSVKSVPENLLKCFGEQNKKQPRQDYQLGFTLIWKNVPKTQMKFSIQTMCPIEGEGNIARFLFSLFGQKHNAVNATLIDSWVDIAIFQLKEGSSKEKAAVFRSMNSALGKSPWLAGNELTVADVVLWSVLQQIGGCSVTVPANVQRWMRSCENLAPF

B1: AIMP2-DX2 protein (other)
chain: MPMYQVKPYHGGGAPLRVELPTCMYRLPNVHGRSYGPAPGAGHVQDYGALKDIVINANPASPPLSLLVLHRLLCEHFRVLSTVHTHSSVKSVPENLLKCFGEQNKKQPRQDYQLGFTLIWKNVPKTQMKFSIQTMCPIEGEGNIARFLFSLFGQKHNAVNATLIDSWVDIAIFQLKEGSSKEKAAVFRSMNSALGKSPWLAGNELTVADVVLWSVLQQIGGCSVTVPANVQRWMRSCENLAPFNTALKLLK
notes: Endogenous protein in H460 or SW460 cell lysates in the Western blots; LexA/B42 fusion in yeast two hybrid; 35S-labelled in vitro translation product (pET-28a) in the pull-down; also called p38DX2; AIMP2 lacking exon 2
B2: H5 Fab (Fab, V domains shown)
VH: QEQLVESGGGLVTPGGTLTLTCTASGFTISSYHMTWVRQAPGKGLEWIGVISNSGGTSYANWAKGRFTISKTSTTVDLKITSPTTEDTATYFCVRGVPGINSNLWGQGTLVTISS
VL: AQVLTQTPSSVSAAVGGTVTINCQSSQSVYSGNWLAWYQQKPGQPPKLLIYSTSTLASGVPSRFKGSGSGTQFTLTVSDLECDDAATYYCAGDYDGYKNAFGGGTKVVVKR
notes: Detected with anti-HA tag or anti-human Fab antibody, so vector tags may be present; they are not described; also called antibody fragment H5 Fab; antibody (Fab) of colon H5
B3: H5 IgG antibody (antibody, V domains shown)
VH: B2 VH
VL: B2 VL
notes: also called H5 antibody (IgG); H5 antibody
B4: AIMP2-DX2 epitope peptide (amino acid residues 42 to 52, GHVQDYGALKD, of the AIMP2-DX2 protein) (peptide)
peptide: GHVQDYGALKD

Tests used:
[1] = target: T6, Smad2 (human) (human, UniProt Q15796 1-467, limits assumed); assay: yeast two hybrid (FIG. 4e)
T6 construct: LexA fusion (pEG202) in yeast two hybrid; also called R-Smad2; Lex-Smad2
T6 sequence (Q15796 whole entry, the tested form may be a part): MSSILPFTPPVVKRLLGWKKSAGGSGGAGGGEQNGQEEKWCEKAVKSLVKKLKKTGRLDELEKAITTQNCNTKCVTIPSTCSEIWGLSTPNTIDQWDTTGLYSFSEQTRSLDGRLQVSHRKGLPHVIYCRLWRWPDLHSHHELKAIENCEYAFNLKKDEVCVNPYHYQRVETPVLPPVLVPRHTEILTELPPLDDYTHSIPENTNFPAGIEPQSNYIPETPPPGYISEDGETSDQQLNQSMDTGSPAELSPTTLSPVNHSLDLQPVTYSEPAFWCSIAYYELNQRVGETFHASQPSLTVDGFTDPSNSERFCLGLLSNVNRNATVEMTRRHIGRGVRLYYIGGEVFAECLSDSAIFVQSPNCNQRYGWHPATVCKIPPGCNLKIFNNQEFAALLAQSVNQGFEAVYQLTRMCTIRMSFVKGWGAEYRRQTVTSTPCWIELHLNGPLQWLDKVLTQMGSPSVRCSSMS

[2] = target: T1, FUSE-binding protein; assay: yeast two hybrid (FIG. 4e)
[3] = target: T2, AIMP2-DX2 with thirty three (33) …; assay: Western blot of HEK293T lysates (FIG. 20a)
Text: (§1) FIG. 20a and FIG. 20b show a test result of determining the effect of N-terminal amino acid deletion of the AIMP2-DX2 protein on the binding between the H5 Fab and the AIMP2-DX2 protein. […] Being fused with strep tag, the AIMP2-DX2 proteins expressed in HEK293T cells were the full-length AIMP2-DX2 protein (“F-DX2” or “F”) and its N-terminal deleted isotypes (“42-DX2” or “42” for two (2) amino acid deletion; “423-DX2” or “423” for twenty three (23) amino acid deletion; “433-DX2” or “433” for thirty three (33) amino acid deletion), respectively. […] “EV” means an empty vector.
(§2) Further, the effect of N-terminal amino acid deletion of the AIMP2-DX2 protein on the binding between H5 Fab and AIMP2-DX2 protein was analyzed (See FIG. 20). It was reported that N-terminal amino acid residues of the AIMP2-DX2 exert a significant effect on the solubility of the AIMP2-DX2. AIMP2-DX2 derivatives in which the N-terminal two (2), twenty three (23) or thirty three (33) amino acid residues were deleted, respectively, were prepared (See FIG. 20b). The full-length AIMP2-DX2 and its isotypes were fused with strep tag and then expressed in the HEK293T cells, followed by Western blot analysis using H5 Fab.

[4] = target: T3, AIMP2-DX2 with two (2) N-terminal amino …; assay: Western blot of HEK293T lysates (FIG. 20a)
Text: as §1, §2

[5] = target: T4, AIMP2-DX2 with twenty three (23) …; assay: Western blot of HEK293T lysates (FIG. 20a)
Text: as §1, §2

[6] = target: T5, AIMP2 protein (wild type, full-length); assay: Western blot of H460 cell lysates (FIG. 22)
Method: Lastly, it was tested whether H5 antibody is capable of differentiating AIMP2-DX2 from wild type AIMP2 protein (See FIG. 22). Western blot analysis was performed on H460 cell lysates using the H5 antibody.

[7] = target: B4; assay: surface plasmon resonance, H5 IgG on CM5 chip, peptide in flow (FIG. 21a)
Text: H5 antibody and IgG proteins were coated on the CM5 chips, while the exemplary AIMP2-DX2 epitope peptide (i.e. amino acid residues 42 to 52 ([…]) as shown in SEQ ID NO: 2 or SEQ ID NO: 17) at various concentrations was flowed over the chip. As shown in FIG. 21a and FIG. 21b, the binding affinity between H5 IgG antibody and the AIMP2-DX2 epitope peptide was indicated in sensorgram. X axis of sensorgram indicates time (second, s), while y axis means response (response unit, RU). The description in a box indicates a concentration of the AIMP2-DX2 epitope peptide in nM.
Still further, the binding affinity between H5 IgG antibody and the exemplary AIMP2-DX2 epitope peptide was determined by using surface plasmon resonance analysis (See FIG. 21). The H5 antibody (IgG) and IgG proteins were coated on the CM5 chips, while the exemplary AIMP2-DX2 epitope peptide at various concentrations was flowed over the chip to monitor the real time association and dissociation between H5 antibody and the exemplary AIMP2-DX2 epitope peptide. Analysis reagents and buffer were injected at the flow velocity of 15 μl/min. for 6 min, followed by washing for 20 min. Analysis was performed in sensorgram in which a response result of a blank without protein coating is subtracted from a response results between H5 antibody or IgG and the AIMP2-DX2 epitope peptides.

[8] = target: B2; assay: antigen pre-adsorption, 100 µg/ml peptide with H5 Fab, Western blot of H460 lysate (FIG. 18)
Method: Firstly, antigen pre-adsorption analysis was conducted in order to confirm whether the prepared H5 Fab specifically binds to the AIMP2-DX2. After electrophoresis of cell lysates of H460 lung cancer cells which expressed the AIMP2-DX2, Western blot analysis was performed using a H5 Fab in the presence of 100 μg/ml of the AIMP2-DX2 epitope polypeptide ([…]) (indicated as “+” in FIG. 18) and a H5 Fab without the addition of the AIMP2-DX2 epitope peptide (indicated as “−” in FIG. 18), respectively.

B1
binding result [1]: no binding | binding result [2]: no binding

B2
binding result [3]: binds | binding result [4]: binds | binding result [5]: binds | binding result [6]: no binding

B3
binding result [7]: binds

B4
binding result [8]: binds
